Reference: article PMC8937303 (Molecular Cell, 2022)

Experiments:
[1] = molecular target: T1, SHP2_(2SH2) (UniProt Q06124 1-221); assay: ITC
T1 sequence (looked up): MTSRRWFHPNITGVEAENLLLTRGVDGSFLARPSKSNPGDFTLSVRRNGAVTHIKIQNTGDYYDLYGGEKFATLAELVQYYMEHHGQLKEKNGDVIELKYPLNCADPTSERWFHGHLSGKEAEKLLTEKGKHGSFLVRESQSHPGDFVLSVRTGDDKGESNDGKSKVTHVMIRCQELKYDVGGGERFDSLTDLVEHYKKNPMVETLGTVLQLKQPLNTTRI

[2] = molecular target: T2, GST-SHP2 (UniProt Q06124 1-593); assay: pull-down
T2 sequence (looked up): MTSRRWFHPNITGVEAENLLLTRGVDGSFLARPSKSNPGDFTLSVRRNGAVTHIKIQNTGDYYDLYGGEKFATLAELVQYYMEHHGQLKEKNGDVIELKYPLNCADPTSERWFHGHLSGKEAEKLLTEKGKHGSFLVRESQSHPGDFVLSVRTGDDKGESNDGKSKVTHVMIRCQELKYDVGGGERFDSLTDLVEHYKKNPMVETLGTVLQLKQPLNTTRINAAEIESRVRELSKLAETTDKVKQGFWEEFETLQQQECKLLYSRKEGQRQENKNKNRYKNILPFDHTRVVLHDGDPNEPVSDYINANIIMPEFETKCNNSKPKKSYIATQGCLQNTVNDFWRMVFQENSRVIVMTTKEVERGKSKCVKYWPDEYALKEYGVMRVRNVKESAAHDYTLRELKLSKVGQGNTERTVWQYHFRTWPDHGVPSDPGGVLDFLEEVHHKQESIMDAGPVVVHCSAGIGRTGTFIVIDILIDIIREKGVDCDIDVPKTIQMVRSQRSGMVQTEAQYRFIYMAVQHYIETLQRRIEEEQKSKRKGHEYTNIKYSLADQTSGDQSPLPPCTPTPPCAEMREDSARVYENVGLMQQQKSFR

[3] = molecular target: T1, SHP2_(2SH2); assay: pull-down

B1: pFGFR2C58 (domain or fragment, UniProt P21802 764-821, looked up)
chain: TTNEEYLDLSQPLEQYSPSYPDTRSSCSSGDDSVFSPDPMPYEPCLPQYPHINGSVKT
modifications: tyrosine phosphorylated in vitro (sites not printed for the preparation)
Kd [1]: ~8 µM
stoichiometry N [1]: 1

B2: pFGFR2_(Cyto) (domain or fragment, UniProt P21802 400-821, looked up)
chain: MKNTTKKPDFSSQPAVHKLTKRIPLRRQVTVSAESSSSMNSNTPLVRITTRLSSTADTPMLAGVSEYELPEDPKWEFPRDKLTLGKPLGEGCFGQVVMAEAVGIDKDKPKEAVTVAVKMLKDDATEKDLSDLVSEMEMMKMIGKHKNIINLLGACTQDGPLYVIVEYASKGNLREYLRARRPPGMEYSYDINRVPEEQMTFKDLVSCTYQLARGMEYLASQKCIHRDLAARNVLVTENNVMKIADFGLARDINNIDYYKKTTNGRLPVKWMAPEALFDRVYTHQSDVWSFGVLMWEIFTLGGSPYPGIPVEELFKLLKEGHRMDKPANCTNELYMMMRDCWHAVPSQRPTFKQLVEDLDRILTLTTNEEYLDLSQPLEQYSPSYPDTRSSCSSGDDSVFSPDPMPYEPCLPQYPHINGSVKT
modifications: tyrosine phosphorylated in vitro (sites not printed for the preparation)
binding result [2]: binds

B3: GST-pC58 (domain or fragment, UniProt P21802 763-821, looked up)
chain: LTTNEEYLDLSQPLEQYSPSYPDTRSSCSSGDDSVFSPDPMPYEPCLPQYPHINGSVKT
modifications: tyrosine phosphorylated in vitro
binding result [3]: binds
